Measured values as given in article PMC6086383 (Archives of biochemistry and biophysics, 2018).

Target: porcine milk butyrylcholinesterase (Sus scrofa (domestic pig), UniProt A0A4X1VEU5)
Assay: ELISA

Sequence of porcine milk butyrylcholinesterase (P32752 whole entry): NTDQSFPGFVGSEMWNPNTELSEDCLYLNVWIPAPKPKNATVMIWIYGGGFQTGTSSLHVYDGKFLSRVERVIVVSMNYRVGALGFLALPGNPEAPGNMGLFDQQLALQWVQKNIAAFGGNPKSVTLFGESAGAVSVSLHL

B1: mouse anti-HuBChE monoclonal antibody B2 18-5 (antibody, V domains shown)
VH: QVQLQQSGAELVRPGSSVKISCKASGYAFSDYWMNWVKQRPGQGLEWIGQIYPGDGDTYYNGKFKGKATLTADKSSSTAYMQLSSLISEDSAVYFCARSRPLLDYSMHYWGQGASVTVSS
VL: DIQMTQSSSSFSVSLGDRVTITCKTSEDIYNRLAWYQQKPGNAPRLLISGATSLETGVPSRFSGSGSGEDFTLSITSLQTEDVATYYCQQYWSTPYTFGGGTKLEIK
B1: no binding.
